Molecular target: ADAMTS6 C-terminal region (human) (UniProt Q9UKP5)
Assay: SPR; Biacore; ADAMTS protein (full-length or C-terminal region) immobilised by amine coupling on CM5 (~3000 RU); analyte injected at 30 ul/min; 10 mM HEPES pH 7.4, 0.1 M NaCl, 0.5 mM CaCl2, 0.005% P20; 1:1 kinetics or equilibrium analysis

Sequence of ADAMTS6 C-terminal region (human) (Q9UKP5 558-1117): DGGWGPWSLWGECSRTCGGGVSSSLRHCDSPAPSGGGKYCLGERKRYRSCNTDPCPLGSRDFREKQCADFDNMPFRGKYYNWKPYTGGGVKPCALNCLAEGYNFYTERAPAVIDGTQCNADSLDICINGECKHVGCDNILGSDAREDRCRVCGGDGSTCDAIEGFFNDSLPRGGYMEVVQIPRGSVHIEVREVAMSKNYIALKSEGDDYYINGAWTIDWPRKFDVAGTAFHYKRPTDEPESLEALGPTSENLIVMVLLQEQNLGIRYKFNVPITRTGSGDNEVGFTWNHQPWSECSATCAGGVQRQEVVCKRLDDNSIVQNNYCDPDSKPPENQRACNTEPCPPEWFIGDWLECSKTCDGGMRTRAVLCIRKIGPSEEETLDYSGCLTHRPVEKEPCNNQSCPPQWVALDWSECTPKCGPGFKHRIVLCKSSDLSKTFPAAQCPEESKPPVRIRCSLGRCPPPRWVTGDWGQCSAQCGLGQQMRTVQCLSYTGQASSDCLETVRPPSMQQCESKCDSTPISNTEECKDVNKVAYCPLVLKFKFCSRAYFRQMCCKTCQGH

Kd: 9.8 nM
Substance: cellular fibronectin (natural protein)

From publication PMC5078793
